The values that follow come from the supplement of paper PMC9942255.

The test system of this data set is Bacillus subtilis DB104 (SP-AmyQ fusion secretion). The experiment in a line: AmyQ secretion efficiency, weighted average sort bin (1 = best secretion, 10 = worst) (bin number (weighted average, 1-10)); higher = lower secretion efficiency. Summed up: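 B. subtilis DB104 library expressing mature AmyQ fused to designed signal peptides (amyE-integrated) was encapsulated at about 0.3 cells per ~65 nL alginate bead with fluorescein-starch, grown about 13 h at room temperature and nile red stained. Occupied beads were sorted by large-particle flow cytometry into 10 equally populated bins by green/red fluorescence ratio, and each bin's amplicons were Illumina-sequenced. Secretion score is the read-frequency-weighted average bin number, normalised to beads per bin, excluding low-abundance sequences.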

“And” between values parts separate entries of the source, which are not always exact repeats. Equal entries are not always repeated.

Turning to MGCGTQGKGSGIASFPVSAQAKDQ, the AmyQ secretion efficiency is 6.09.
Take MLKKIALTLCPAIVGSLLFFTAPASAHVK: the AmyQ secretion efficiency is 2.44.
With MFKKLRKKKKRLTFSLSLVLPLDGHAKAQEV, the AmyQ secretion efficiency amounted to 6.86.
For MNKKYFVLIVCIIFTSALFPTFAVTVTAAQG the value was 1.05; for MRKYTVIASILLSFLSVLSGGHHESKAFPV, 3.25 and 4.96.
For MRKKLKWLSFKRRRKRLLFLFKYQFSNNDS the value was 8.72; for MKKRLIGFLVLVPALIMSGITLIEARKK, 7.62.
Then MNIKKFAKQATVLTFTTALLAGGATQAFAATE, with 1.07.
In turn, MKKAAAVLLSLGLVFGFSYGAGHVAEAATS yielded an AmyQ secretion efficiency of 2.5.
In turn, MKRMIVRMTLPLLIVCLAFSSFSASAPVGARAASE yielded an AmyQ secretion efficiency of 2.02.
For MKRLLVSLRVWMVFLMNWVTPDRKTAAAAVD the value was 7.62; for MNLRKILLSSALSLVSAAPVLATSS, 3.92; for MKKKQVMLALTAAAGLGLTALHAKAAPL, 2.9.
For MRYFSKAVFVIMISFLIATVNVNTAHAAID the value was 5.65; for MLKKKWMVGLLAGCLAGFSYNAFATEN, 5.96; for MRPVFPLILSAVLFLSCFFGARQTEASGSKR, 1.87.
For MKKWMITIAMLILAGIALFVFISPYKSHKT the value was 6.74; for MRPVFPLILIAVLFLFCFSFGARQTEASASKR, 2.07.
MKKAFLVFLSVVLVTTVFLVKQQESVAQPKQL: the AmyQ secretion efficiency came out at 4.94.
Then MKLKKRVSMFLVALTMCGGLFVRRAKAVKT, with 7.34.
For MKKRLIGFLVLVPALIEDEEELIEANKK the value was 7.82.
Then MKVPKTMLKRTAAGLLLSLTATSVSAHYV, with 4.94; and MKKKQVMLALTAAAGLGLTALHSAPAGKAAPL, with 5.58; and MRKKRVITCVMAASLTLGSLLPAGYLSAKED, with 4.34.
For the sequence MKWMCSICCAAVLLAGGAAQHEAV, the AmyQ secretion efficiency turned out to be 8.16.
Then MRNLTKTSLLLAGLCTAAEEEEEDHASAEES, with 6.56.
For MGSLTKTSLLLAGLCTAAQMVFVTHASAEES the value was 4.02.
Regarding MRGKSAVLLSLIMLIAGFLDDDEEDSFSFQM, the AmyQ secretion efficiency was 8.01.
Then MSSGIIVAGLAVSAVVGSSMAAAPAEAKTI, with 6.57; and MAIIIAIIAAVIVIAALITFEEDERNASPG, with 5.02.
For MKLSVKIAGVLTVAAAAMTAKMYSTAKGN the value was 6.41; for MGRIKTKITILLVLLLLLAGPYMYIN, 7.19; for MKKKVKIAGVLTVAAAAMTAKMYATAKGN, 6.8.
Then MKLRKVLTGSVLSLVSASPAFATSP, with 3.59; and MTMLRKIIGWILLLCIIPLFAFTVIASWKEV, with 5.23; and MGMKKKLSLGVASAALGLALVGGGTWGAFN, with 7.37.
As for MKKAFLVFLSVVLVTTVFLVKQQESVLQAKQL, the AmyQ secretion efficiency worked out at 4.04.
Consider MMIKQCTICLSLLVFGTTAAHAEET, for which the AmyQ secretion efficiency came out at 2.71.
Sequence MAIIIAIIAAVIVIAALITFNVRNADDD yielded an AmyQ secretion efficiency of 7.51.
Then MGMKKKLSLGVASAALGLALVGGGTWFAFN, with 7.33.
Then MLCVMMLLFSAIASFPVSAQSKDQ, with 5.6; and MRFTKVVGFLSVLGLAAVFPLTAQTEKA, with 5.69.
The sequence MKLKKRVSMYTQALTMCGGLFVTPAKAVKT returned an AmyQ secretion efficiency of 5.95.
Then MMKQIITATTAVVLGSTLFAGAASAQSI, with 2.49; and MKKAFILSAAAAVGLFTFGGVQQVSAKEL, with 3.11; and MRPVFPLILSAVLFLSCFFGARQTEYSASKR, with 8.3.
For MKLKKRVSMFLVALTMCGGLFVTPAKAVTD the value was 3.07.
Sequence MKRTWNTCLTALLSVLLVAGSVPFHAEAKKP yielded an AmyQ secretion efficiency of 2.37.
For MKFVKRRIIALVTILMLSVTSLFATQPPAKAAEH the value was 2.78; for MKKWIYVVLVLSIAGIGGFSVHTASS, 6.85.
Then MKRKLLSSLAISALSLGLLVSAPTASFARKR, with 3.11; and MKRFSTAYLLLGILCSAAVFLIGAPSRALGAPV, with 1.61.
Regarding MRSYIKVLTMCFLGLILFVPTTAPSPGFALADNS, the AmyQ secretion efficiency was 4.85.
For MSKVLMAFIICLSLILSVLAAPPSGAKAESV, the AmyQ secretion efficiency is 2.82.
Sequence MLKKIALTLCPAIVGSLLFFTAPASPHVS gave an AmyQ secretion efficiency of 8.85.
For the sequence MKRLFMKASLVLFAVVFVFAVKGAPKAKAETH, the AmyQ secretion efficiency worked out at 1.9.
On to MKKIGLLFMLCLAALRRRKRKRQQADAAEA, for which the AmyQ secretion efficiency came to 6.59.
Sequence MFKKHTISLLIIFLLASAVLAKPIEAHTK returned an AmyQ secretion efficiency of 2.17.
With MNKLKRLSMLTVMIASVFIFSSHCLAAQY, the AmyQ secretion efficiency amounted to 2.86.
Then MKKAFLVFLSVVLVTTVFLVKQQESVCQAKQL, with 4.58; and MRKKHKTISLLIIFLLASAVLAKPIEAHTV, with 2.55.
The sequence MPYLKRVRKLLVTGLFMSLFAVTATASAQTG showed an AmyQ secretion efficiency of 1.73.
For MKKSSYCSYQRQVILSGVALTQLS the value was 7.04; for MRKYTVIASILLSFLSVLFIVVVTSKAFPV, 5.84; for MHRRRKAAGAVCLAVVLIAGCRFNEDQHQAEGENT, 4.73.
Then MNLRKILLSSALSLGMLVSAAPCLATSS, with 2.03; and MFNRLFRVCFLAALIMAFSSSSLFISLVTLPNSVYAQKP, with 4.04; and MKSKWMSGLLLVAVGFSFTQVMVHCGET, with 4.81.
For MKSCKQKQVCSLAAILLLIPSVSFAADS the value was 6.15.
With MKSLPYTIALLFCGLIIVSMAAKGHED, the AmyQ secretion efficiency is 7.33.
MKKKQVMLALTAAAGLGLTALHSAPAQKAAPL displayed an AmyQ secretion efficiency of 5.43.
Then MKSKWMSGLLLVAVGFSFTQVMVHQGET, with 6.96; and MKTKTLFIFSAILTLSIEDEDEETFAQTA, with 5.99; and MKKKLAAGLTASAIVGTTLVVTPAETATI, with 5.92.
Regarding MKRYRQKCLLLVTIMFLGVLFGMQQANHG, the AmyQ secretion efficiency stood at 5.69.
For “MNIKKFAKQATVLTFTTALLAGGATQAFAKET [wt_31]” the value was 3.5; for MKKWLIIAVSLAIAIVLFMYTKGEQKAAGM, 6.98; for MRMLWRSLALCGLALTLAPCAQADDD, 4.62.
For MKRLFMKASLVLFAVVFVFAVKGAPTKAETH the value was 2.27.
For MRPVFPLILSAVLFLSCFFGARQTETSASKR the value was 5.36; for MFNRLFRVCFLAALIMAFTLPNSVYAQKR, 2.62.
